This note sets out measurements from patent US20080292704A1 (published 2008).

Test [1] has as its target T1, HSA1Fc (human, UniProt P02768 25-221).
T1 construct: range 1-197; also called Fc fusion protein; Ig fusion protein
The test is described as follows: ELISA on coated recombinant receptor, Protein G-HRPO detection.

Test [2] addresses T2, HSA1R4 (human, UniProt P02768 25-221).
T2 construct: range 1-197; also called R4 ligand; HCH2 polymer
Description: ELISA on coated recombinant receptor (2 µg/mL), HRPO-Protein G detection.

In test [3] the target is T2, HSA1R4. The test is described as follows: ELISA on coated recombinant receptor (4 µg/mL), HRPO-Protein G detection. On the technique in general: In an ELISA, binding on a coated surface is turned into a signal by an enzyme label.

T1 sequence (P02768 other isoform, or with tags, fused parts or gaps): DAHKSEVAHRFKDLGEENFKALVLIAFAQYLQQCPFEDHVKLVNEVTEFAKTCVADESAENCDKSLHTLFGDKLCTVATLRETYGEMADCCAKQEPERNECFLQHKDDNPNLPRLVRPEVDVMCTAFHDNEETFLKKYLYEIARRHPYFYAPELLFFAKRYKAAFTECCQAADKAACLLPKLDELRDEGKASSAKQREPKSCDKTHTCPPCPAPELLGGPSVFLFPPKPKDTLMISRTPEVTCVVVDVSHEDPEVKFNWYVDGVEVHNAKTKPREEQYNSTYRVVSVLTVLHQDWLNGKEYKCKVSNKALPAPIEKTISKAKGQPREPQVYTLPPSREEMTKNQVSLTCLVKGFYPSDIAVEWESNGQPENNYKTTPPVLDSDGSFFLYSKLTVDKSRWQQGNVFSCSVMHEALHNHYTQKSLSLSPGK
T2 sequence (P02768 other isoform, or with tags, fused parts or gaps): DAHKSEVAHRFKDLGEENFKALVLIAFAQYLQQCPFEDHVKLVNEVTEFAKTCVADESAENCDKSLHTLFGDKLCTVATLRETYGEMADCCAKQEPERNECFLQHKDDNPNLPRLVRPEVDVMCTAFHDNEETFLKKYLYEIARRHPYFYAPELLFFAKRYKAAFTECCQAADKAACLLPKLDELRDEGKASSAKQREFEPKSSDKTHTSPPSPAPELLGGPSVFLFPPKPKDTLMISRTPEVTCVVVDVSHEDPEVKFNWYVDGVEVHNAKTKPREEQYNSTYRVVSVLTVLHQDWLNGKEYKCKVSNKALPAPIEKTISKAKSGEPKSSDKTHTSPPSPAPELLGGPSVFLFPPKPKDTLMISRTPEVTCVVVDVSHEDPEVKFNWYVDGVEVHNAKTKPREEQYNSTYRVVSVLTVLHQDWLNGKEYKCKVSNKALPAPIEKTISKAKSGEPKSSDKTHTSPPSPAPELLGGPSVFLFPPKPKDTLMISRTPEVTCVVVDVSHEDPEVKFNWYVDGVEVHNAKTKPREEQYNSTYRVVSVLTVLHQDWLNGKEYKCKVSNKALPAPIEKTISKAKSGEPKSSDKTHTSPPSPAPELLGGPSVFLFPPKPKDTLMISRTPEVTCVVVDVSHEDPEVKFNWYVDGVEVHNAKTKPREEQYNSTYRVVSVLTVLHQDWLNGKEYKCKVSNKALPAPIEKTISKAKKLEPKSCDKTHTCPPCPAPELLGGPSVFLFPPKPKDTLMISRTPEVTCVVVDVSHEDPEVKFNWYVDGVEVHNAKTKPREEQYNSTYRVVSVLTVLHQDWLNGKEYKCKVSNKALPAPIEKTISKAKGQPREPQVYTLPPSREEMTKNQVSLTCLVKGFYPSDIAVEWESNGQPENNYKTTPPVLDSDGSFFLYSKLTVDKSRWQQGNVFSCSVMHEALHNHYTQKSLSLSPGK

B1: recombinant FcγRI ligand binding domain, 6xHis tagged (receptor)
chain: QVDTTKAVITLQPPWVSVFQEETVTLHCEVLHLPGSSSTQWFLNGTATQTSTPSYRITSASVNDSGEYRCQRGLSGRSDPIQLEIHRGWLLLQVSSRVFTEGEPLALRCHAWKDKLVYNVLYYRNGKAFKFFHWNSNLTILKTNISHNGTYHCSGMGKHRYTSAGISVTVKELFPAPVLNASVTSPLLEGNLVTLSCETKLLLQRPGLQLYFSFYMGSKTLRGRNTSSEYQILTARREDSGLYWCEAATEDGNVLKRSPELELQVLGLQLPTPVWFH
For B1, the binding result in test [1] and in test [2] was “binds” each time.

B2: recombinant FcγRIIa ligand binding domain, 6xHis tagged (receptor)
chain: QAAAPPKAVLKLEPPWINVLQEDSVTLTCQGARSPESDSIQWFHNGNLIPTHTQPSYRFKANNNDSGEYTCQTGQTSLSDPVHLTVLSEWLVLQTPHLEFQEGETIMLRCHSWKDKPLVKVTFFQNGKSQKFSHLDPTFSIPQANHSHSGDYHCTGNIGYTLFSSKPVTITVQVPSMGSSSPMG
Take B2: in test [1], the binding result is “no binding (tested: 20 ug/mL (highest concentration tested))”.

B3: recombinant FcγRIIb ligand binding domain, 6xHis tagged (receptor)
chain: TPAAPPKAVLKLEPQWINVLQEDSVTLTCRGTHSPESDSIQWFHNGNLIPTHTQPSYRFKANNNDSGEYTCQTGQTSLSDPVHLTVLSEWLVLQTPHLEFQEGETIVLRCHSWKDKPLVKVTFFQNGKSKKFSRSDPNFSIPQANHSHSGDYHCTGNIGYTLYSSKPVTITVQAP
Turning to B3, the figures for the binding result in test [1] and in test [3] were “no binding (tested: 20 ug/mL (highest concentration tested))” and “binds”, respectively.
